This note sets out measurements from patent US20240101708A1 (Genentech, published 2024).

This test deals with T1, recombinant human RNF43 extracellular domain (human, UniProt Q68DV7 24-197).
T1 construct: extracellular domain; also called huRNF43; human RNF43 ECD
T1 sequence (looked up): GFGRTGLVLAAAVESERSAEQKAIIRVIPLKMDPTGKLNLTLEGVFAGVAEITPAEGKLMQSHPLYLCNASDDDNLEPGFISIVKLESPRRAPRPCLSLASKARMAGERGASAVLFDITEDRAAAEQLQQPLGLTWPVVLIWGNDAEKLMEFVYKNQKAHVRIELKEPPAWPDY
Nature of the test: SPR Biacore 8K; antibody captured on Protein A; RNF43 ECD analyte; 25 C. As to the method:
Antibodies were screened for binding to recombinant human RNF43 and ZNRF3 ECDs using a Biacore® 8 k instrument (GE Life Sciences). Briefly, antibodies diluted to 1 μg/ml in 1×HBSP buffer (Cytiva, BR100368) were captured on a Sensor Chip Protein A (GE Life Sciences) using a flow rate of 10 μl/minute and a contact time of 60 seconds. Binding of recombinant human RNF43 and ZNRF3 extracellular domain to the captured antibodies was analyzed at 25° C. using a single cycle kinetics method with a flow rate of 30 μl/minute, a contact time of 180 seconds and a dissociation time of 600 seconds. The concentration of recombinant human RNF43 and ZNRF3 extracellular domain in the single cycle kinetics were 0, 0.8, 4, 20, and 100 nM. Between cycles, the chip was regenerated using 10 mM Glycine HCl pH 1.5 injected for 30 seconds at 30 μl/minute. Data were evaluated using Biacore 8K Evaluation software (GE Life Sciences). Kinetic constants were obtained using a 1:1 binding model with the parameter RI set to zero. Cell surface ligase antibodies with sub-nanomolar affinities may provide advantages in certain instances, for example, in the degradation efficiency which is correlated with the durability of the ternary complex as shown in FIG. 5D.
For orientation: Surface plasmon resonance follows binding to a sensor surface in real time, without labels.

B1: RNF43-33 (antibody, V domains shown)
VH: QEQLKESGPGLVQPSQTLSLTCTVSGFSLTSYNVHWVRQPPRKGLEWMGRMRYNGDTSYNSALKSRLSISRDTSKNQVFLKMNSLQTDDTGTYYCARGPLWDYWGQGVMVTVSS
VL: DVVLTQTPPTLSATIGQSVSVSCRSSQSLLHSNGNTYLNWLLQRPGQPPQLLIYLVSRLESGVPNRFSGSGSGTDFTLKISGVEAEDLGVYYCVQSTHAPYTFGAGTKLELK
notes: Rat clone; VH/VL only
What is called Kd is the concentration at which binding is half-saturated. B1: the dissociation constant Kd turned out to be 63 nM.

B2: RNF43-210 (antibody, V domains shown)
VH: QIQLVQSGPELKKPEESVKISCKASGYIFTDYLIHWVKQAPGEGLKWMGWINTYTGKPTYADDFKGRFVFSLEASASTAILQISNLKNEDTATYFCALGPITTVVYVMDAWGQGTSVTVSS
VL: DIQMTQSPSFLSASVGDRVTINCKASQNINKYLNWYQQKLGEAPKRLIYNTNNLQTDIPSRFSGSGSGADYTLTINSLQPEDFATYFCLQHNSFPYTFGAGTKLELK
notes: Rat clone; VH/VL only
With B2, the dissociation constant (Kd) was found to be 13.4 nM.

B3: RNF43-13 (antibody, V domains shown)
VH: QSLEESGGGLVKPGGTLTLTCKASGIDFSGYYYMCWVRQAPGKGLEWIACIYTTSGSAWYASWAKGRFTISITTSLNTVTLQMTSLTATDTATYFCVRYANYGGYNYPEFGVLWGPGTLVTVSS
VL: AYDMTQTPASVEVAVGATVTIKCQASEDIYNLLAWYQQKPGQPPKLLIYRASKLASGVPSRFSGSGSGTEFTLTISSVQCDDAATYYCQQGYSISNVENPFGGGTEVVVK
notes: Rabbit clone; VH/VL only
For the molecule B3, the Kd is 99.6 nM.

B4: RNF43-35 (antibody, V domains shown)
VH: QVQLKESGPGLVQPSQTLSLTCTVSGFSLTTYSVHWVRQHSGKNLEWMGRMWTAGDTSYNSAFTSRLNIFRDTSKSQVFLKMNSLQTEDTGTYYCARSSYTSGYPFDSWGQGVMVTVSS
VL: DTVLTQSPALAVSPGERVTISCRASESVSKLMHWYQQRPGQQPQLLIYLTSHLASGVPARFSGSGSGTDFTLTIDPVEADDTATYYCQQSRNDPTFGAGTKLELK
notes: Rat clone; VH/VL only
As for B4, the Kd is 0.07 nM.

B5: RNF43-90 (antibody, V domains shown)
VH: QVQLKESGPGLVQPSQTLSLTCTVSGFSLTSYSVHWVRQHSGNRLEWMGRMWSAGDTSFNSAFTSRLNITRDTSKSQVFLKMNSLQTEDTGTYYCVRSFYNAGYPFDYWGQGVMVTVSS
VL: DTVLTQSPALAVSPGERVTISCRASDSVIKLMNWYQQKPGQRPKLLIYLASHLASGVPARFSGSGSGTDFTLTIDPVETDDTATYYCQQSRNDPTFGPGTKLELK
notes: Rat clone; VH/VL only
In the case of B5, the Kd was found to be 0.29 nM.

B6: RNF43-69 (antibody, V domains shown)
VH: EVQLVESGGGLVQPGRSLKLSCAASGFTFSDYYMAWVRQAPKKGLEWVASITYEGSSTYYGDSVKGRFTISRDNAKSTLYLQMNSLRSEDTATFYCARHLDYGYDYAWYFDFWGPGTMVTVSS
VL: DIVLTQSPTTLSVTPGETVSLSCRTSHSIGTNLHWYQQKTNESPRLLIKYASQSISGIPSRFSASGSGTDFTLNINNVEFDDVSSYFCQQTQSWPLTFGSGTKLEIK
notes: Rat clone; VH/VL only
Turning to B6, the Kd was 16.8 nM.

B7: RNF43-75 (antibody, V domains shown)
VH: EVQLVESGGGLVQPGRSLKLSCAASGFTFSDHYMAWVRQAPKKGLEWVASITYEGSSTYYGDSVKGRFTISRDNAKSTLYLQMNSLRSEDTATFYCARHLDYGYDYAWSFDFWGPGTMVTVSS
VL: DIVLTQSPIILSVTPGETVSLSCRTSHSIGTNLHWYQQKTNESPRLLINYASQSISGIPSRFSASGSGTDFTLNINNVEFEDVASYYCQQTQRWPLTFGSGTKLEIK
notes: Rat clone; VH/VL only
Regarding B7, the Kd came out at 4.65 nM.

B8: RNF43-9 (antibody, V domains shown)
VH: QSLEESGGDLVQPEGSLTLTCTASGFSFSSSCYMCWVRQAPGKGLEWIACINTGSSGSTYYASWAKGRFTISKTSSTTVTLQMTILTAADTATYFCARGYAGYTGYGQFNLWGPGTLVTVSS
VL: QIVMTQTPASVEAAVGGTVTIKCQASQSISNYLAWYQQKPGQRPKLLIYDASKLASGVPSRFKGSGSGTQFTLTISGVECADAATYYCQQGYTMNNVDNAFGGGTEVVVK
notes: Rabbit clone; VH/VL only
As to B8, the dissociation constant Kd amounted to 1.8 nM.
